The test deals with T1, β2 microglobulin (human, UniProt P61769 21-119).
T1 construct: β2M alone, as a denatured band on a Western blot; also called 12 kD molecule
Kind of test: Western blot.

T1 sequence (P61769 21-119 limits assumed): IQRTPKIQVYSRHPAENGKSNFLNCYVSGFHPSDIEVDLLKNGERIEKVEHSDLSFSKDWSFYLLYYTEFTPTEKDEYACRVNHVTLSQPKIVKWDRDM

B1: 2D7 antibody (antibody, V domains shown)
VH: QVQLQQSGPELVKPGASVKMSCKASGYTFTDYFIHWVKQRPGQGLEWIGWIFPGDDTTDYNEKFRGKTTLTADKSSSTAYILLSSLTSEDSAMYFCVRSDDFDYWGQGTTLTVSS
VL: QIVLTQSPAIMSASPGEKVTITCSASSSVSYMHWFQQKPGTFPKLWIYSTSNLASGVPTRFSGSGSGTSYSLTISRMEAEDAATYYCQQRTSYPPTFGSGTKLEIK
notes: CDR1 starts at 50 and 46, so these ranges probably include the leader, but no cleavage site is stated
Turning to B1, the binding result is “no binding”.

The values above are taken from US20060275301A1 (Chugai, published 2006).
